Reference: PMC10162664, “Microbial β-glucuronidases drive human periodontal disease etiology” (Science Advances, 2023)

Assays:
[1] = target: T1, TlGUS L1 (Treponema lecithinolyticum β-glucuronidase) (Treponema lecithinolyticum, UniProt A0AA82WPE8); assay: […] Å crystal structure (as UNC4917-GlcA conjugate formed with PNPG); 4-MUG hydrolysis IC50; assay type: biochemical
T1 construct: recombinant, N-terminal (His)6 tag retained

[2] = target: T1, TlGUS L1 (Treponema lecithinolyticum β-glucuronidase); assay: […] Å crystal structure; assay type: binding
[3] = target: Tannerella forsythia GUS mL1 (mini-loop 1 β-glucuronidase) (Tannerella forsythia); assay: crystal structure; hanging drop vapor diffusion at room temperature; quaternary structure seen in the crystal
[4] = target: Tannerella forsythia GUS mL1 (mini-loop 1 β-glucuronidase) (Tannerella forsythia); assay: SEC-MALS; Superdex 200; protein at 2 mg/ml in 20 mM Hepes (pH 7.4), 300 mM NaCl; 50 μl injected, 0.5 ml/min
[5] = target: T1, TlGUS L1 (Treponema lecithinolyticum β-glucuronidase); assay: […] Å crystal structure (as ciprofloxacin-GlcA conjugate formed with PNPG); IC50; assay type: biochemical
[6] = target: Tannerella forsythia GUS L2 (loop 2 β-glucuronidase) (Tannerella forsythia); assay: crystal structure; hanging drop vapor diffusion at room temperature; quaternary structure seen in the crystal
[7] = target: Tannerella forsythia GUS L2 (loop 2 β-glucuronidase) (Tannerella forsythia); assay: SEC-MALS; Superdex 200; protein at 2 mg/ml in 20 mM Hepes (pH 7.4), 300 mM NaCl; 50 μl injected, 0.5 ml/min
[8] = target: Treponema lecithinolyticum GUS L1 (loop 1 β-glucuronidase) (Treponema lecithinolyticum); assay: crystal structure; hanging drop vapor diffusion at room temperature; quaternary structure seen in the crystal
[9] = target: Treponema lecithinolyticum GUS L1 (loop 1 β-glucuronidase) (Treponema lecithinolyticum); assay: SEC-MALS; Superdex 200; protein at 2 mg/ml in 20 mM Hepes (pH 7.4), 300 mM NaCl; 50 μl injected, 0.5 ml/min
[10] = system: Cc1cc(=O)oc2cc(O[C@@H]3O[C@H](C(=O)O)[C@@H](O)[C@H](O)[C@H]3O)ccc12; assay: purified protein; conditions: pH 5.0
purified protein = substrate: Cc1cc(=O)oc2cc(O[C@@H]3O[C@H](C(=O)O)[C@@H](O)[C@H](O)[C@H]3O)ccc12; assay: purified protein; conditions: pH 5.0; remark: listed apart in the source

Molecule: CNc1ccc2c(n1)sc1c(N3CCNCC3)nc(NC)nc12 [UNC4917]
- IC50 [1]: 2500 nM

Molecule: CNc1ccc2c(n1)sc1c(N3CCN([C@@H]4O[C@H](C(=O)O)[C@@H](O)[C@H](O)[C@H]4O)CC3)nc(NC)nc12 [UNC4917-GlcA, UNC4917-GlcA conjugate]
- 1.75 Å crystal structure [2]: The UNC4917-GlcA conjugate is located within the active site

Molecule: Tannerella forsythia GUS mL1 (mini-loop 1 β-glucuronidase) (enzyme)
- stoichiometry N [3]: 4
- stoichiometry N [4]: 4

Molecule: O=C(O)c1cn(C2CC2)c2cc(N3CCNCC3)c(F)cc2c1=O [ciprofloxacin]
- IC50 [5]: 18.3 µM

Molecule: Tannerella forsythia GUS L2 (loop 2 β-glucuronidase) (enzyme)
- stoichiometry N [6]: 2
- stoichiometry N [7]: 2

Molecule: Treponema lecithinolyticum GUS L1 (loop 1 β-glucuronidase) (enzyme)
- stoichiometry N [8]: 4
- stoichiometry N [9]: 4

Molecule: TlGUS L1 (Treponema lecithinolyticum β-glucuronidase) (Treponema lecithinolyticum)
- Km [10]: 6.8 ± 1 µM
- kcat [10]: 19 ± 1 s⁻¹
- kcat/Km [10]: 2.8e+06 M⁻¹ s⁻¹

B1: human GUS (β-glucuronidase) (Homo sapiens) (protein)
chain: LQGGMLYPQESPSRECKELDGLWSFRADFSDNRRRGFEEQWYRRPLWESGPTVDMPVPSSFNDISQDWRLRHFVGWVWYEREVILPERWTQDLRTRVVLRIGSAHSYAIVWVNGVDTLEHEGGYLPFEADISNLVQVGPLPSRLRITIAINNTLTPTTLPPGTIQYLTDTSKYPKGYFVQNTYFDFFNYAGLQRSVLLYTTPTTYIDDITVTTSVEQDSGLVNYQISVKGSNLFKLEVRLLDAENKVVANGTGTQGQLKVPGVSLWWPYLMHERPAYLYSLEVQLTAQTSLGPVSDFYTLPVGIRTVAVTKSQFLINGKPFYFHGVNKHEDADIRGKGFDWPLLVKDFNLLRWLGANAFRTSHYPYAEEVMQMCDRYGIVVIDECPGVGLALPQFFNNVSLHHHMQVMEEVVRRDKNHPAVVMWSVANEPASHLESAGYYLKMVIAHTKSLDPSRPVTFVSNSNYAADKGAPYVDVICLNSYYSWYHDYGHLELIQLQLATQFENWYKKYQKPIIQSEYGAETIAGFHQDPPLMFTEEYQKSLLEQYHLGLDQKRRKYVVGELIWNFADFMTEQSPTRVLGNKKGIFTRQRQPKSAAFLLRERYWKIANETRYPHSVAKSQCLENSLFT
- Km (purified protein): 84 ± 7 µM
- kcat (purified protein): 2.2 s⁻¹
- kcat/Km (purified protein): 26000 M⁻¹ s⁻¹
